# Source: the supplement of paper PMC10567573
# B1: MMP1 (parent)
# chain: MFFKDRFYMRTNPFYPEVELNFIS
# Variants of: B1
# Assay: protein stability index of a GFP-peptide fusion (GPS, HEK-293T) (PSI 1-6); higher = more stable
# Settings: c terminus: a fixed tail appended
# 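Further: lentivirally expressed fusions sorted by FACS into six bins by GFP to DsRed ratio, PSI derived from sequencing read proportions per bin multiplied by bin number.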
row,Variant,protein stability index
1,MFFKDRFYYRTNPFYPEVELNFIS [M9Y],3.12
2,MFFKDRFYVRTNPFYPEVELNFIS [M9V],2.71
3,MFFKDRFYSRTNPFYPEVELNFIS [M9S],3.67
4,MFFKDRFYQRTNPFYPEVELNFIS [M9Q],2.65
5,MFFKDRFYFRTNPFYPEVELNFIS [M9F],2.56
6,MFFKDRFYHRTNPFYPEVELNFIS [M9H],1.83
7,MFFKDRFYGRTNPFYPEVELNFIS [M9G],3.71
8,MFFKDRFYDRTNPFYPEVELNFIS [M9D],1.75
9,MFFKDRFYCRTNPFYPEVELNFIS [M9C],3.4
10,MFFKDRFYARTNPFYPEVELNFIS [M9A],1.27
11,MFFKDRFYRRTNPFYPEVELNFIS [M9R],2.1
12,MFFKDRFYPRTNPFYPEVELNFIS [M9P],1.93
13,MFFKDRFYIRTNPFYPEVELNFIS [M9I],2.02
14,MFFKDRFYTRTNPFYPEVELNFIS [M9T],2.76
15,MFFKDRFKMRTNPFYPEVELNFIS [Y8K],1.99
16,MFFKDRFCMRTNPFYPEVELNFIS [Y8C],3.33
17,MFFKDRFPMRTNPFYPEVELNFIS [Y8P],2.98
18,MFFKDRFHMRTNPFYPEVELNFIS [Y8H],2.22
19,MFFKDRFIMRTNPFYPEVELNFIS [Y8I],2.73
20,MFFKDRFRMRTNPFYPEVELNFIS [Y8R],2.98
21,MFFKDRFWMRTNPFYPEVELNFIS [Y8W],2.96
22,MFFKDRFTMRTNPFYPEVELNFIS [Y8T],2.23
23,MFFKDRFMMRTNPFYPEVELNFIS [Y8M],2.89
24,MFFKDRFAMRTNPFYPEVELNFIS [Y8A],2.69

row,Variant,protein stability index
1,MFFKDRFNMRTNPFYPEVELNFIS [Y8N],2.17
2,MFFKDRFGMRTNPFYPEVELNFIS [Y8G],2.07
3,MFFKDRFQMRTNPFYPEVELNFIS [Y8Q],2.87
4,MFFKDRFFMRTNPFYPEVELNFIS [Y8F],2.64
5,MFFKDRFDMRTNPFYPEVELNFIS [Y8D],2.43
6,MFFKDRFEMRTNPFYPEVELNFIS [Y8E],1.89
7,MFFKDRFVMRTNPFYPEVELNFIS [Y8V],3.2
8,MFFKDRFSMRTNPFYPEVELNFIS [Y8S],3.33
9,MFFKDRMYMRTNPFYPEVELNFIS [F7M],2.98
10,MFFKDRCYMRTNPFYPEVELNFIS [F7C],2.32
11,MFFKDRHYMRTNPFYPEVELNFIS [F7H],2.13
12,MFFKDRWYMRTNPFYPEVELNFIS [F7W],3.2
13,MFFKDRDYMRTNPFYPEVELNFIS [F7D],1.91
14,MFFKDRVYMRTNPFYPEVELNFIS [F7V],4.52
15,MFFKDRNYMRTNPFYPEVELNFIS [F7N],1.31
16,MFFKDRRYMRTNPFYPEVELNFIS [F7R],3.28
17,MFFKDRAYMRTNPFYPEVELNFIS [F7A],3.4
18,MFFKDRLYMRTNPFYPEVELNFIS [F7L],3.36
19,MFFKDREYMRTNPFYPEVELNFIS [F7E],3.35
20,MFFKDRPYMRTNPFYPEVELNFIS [F7P],3.98
21,MFFKDRYYMRTNPFYPEVELNFIS [F7Y],1.96
22,MFFKDRQYMRTNPFYPEVELNFIS [F7Q],2.06
23,MFFKDRKYMRTNPFYPEVELNFIS [F7K],2.45
